In publication PMC10653821:

Molecular target: H. pylori-bullfrog hybrid ferritin nanoparticle (bullfrog (Rana catesbeiana) | Helicobacter pylori)
Assay: SEC

“H. pylori-bullfrog hybrid ferritin nanoparticle” gave a stoichiometry N of 24.
